Experimental data reported in patent US20250282874A1 (SUZHOU TRANSCENTA THERAPEUTICS, published 2025).
Where two headings read alike, the source gives them in different places.

Experiments:
human PD-L1-His = target: T1, human PD-L1-His (human, UniProt Q9NZQ7 19-238, limits assumed); assay: ELISA, human PD-L1-His coated, anti-human IgG-HRP, OD450
T1 construct: not shown: His tag

human PD-L1-Fc [1] = target: T2, human PD-L1-Fc (human, UniProt Q9NZQ7 19-239); assay: BLI; PD-L1-Fc loaded on the sensor, scFv in solution
T2 construct: also called hPD-L1-Fc; human PD-L1-Fc (Sino Biological, 70110-D02H); not shown: Fc part

human PD-L1-Fc [2] = target: T2, human PD-L1-Fc; assay: as above; remark: listed apart in the source
human PD-L1-Fc [3] = target: T2, human PD-L1-Fc; assay: as above; remark: listed apart in the source
human PD-L1-Fc [4] = target: T2, human PD-L1-Fc; assay: BLI; against H-CDR2-WT (G55A)

B1: Hu4B6_HbLa (antibody, human IgG1, V domains shown)
VH: QVQLVQSGAEVKKPGASVKVSCKASGYTFTDYYMNWVRQAPGQGLEWMGDINPNNGGTSYNHKFKGRVTVTVDTSISTAYMELSRLRSDDTAVYYCVKWGDGPFAYWGQGTLVTVSS
VL: DIQMTQSPSSLSASVGDRVTITCKASQNVGAAVAWYQQKPGKAPKLLIYSASNRYTGVPSRFSGSGSGTDFTLTISSLQPEDIATYYCQQYSNYPTFGQGTKLEIK
EC50 (human PD-L1-His): 2.38 nM

B2: Hu4B6_HcLb (antibody, human IgG1, V domains shown)
VH: QVQLVQSGAEVKKPGASVKVSCKASGYVFTDYYMNWVRQAPGQGLEWMGDINPNNGGTSYNHKFKGRVTVTVDKSISTAYMELSRLRSDDTAVYYCARWGDGPFAYWGQGTLVTVSS
VL: DIQMTQSPSSLSASVGDRVTITCKASQNVGAAVAWYQQKPGKSPKLLIYSASNRYTGVPDRFSGSGSGTDFTLTISSLQPEDIATYYCQQYSNYPTFGQGTKLEIK
EC50 (human PD-L1-His): 3.44 nM

B3: Hu4B6_HaLb (antibody, human IgG1, V domains shown)
VH: QVQLVQSGAEVKKPGASVKVSCKASGYTFTDYYMNWVRQAPGQGLEWMGDINPNNGGTSYNHKFKGRVTVTVDTSISTAYMELSRLRSDDTAVYYCARWGDGPFAYWGQGTLVTVSS
VL: DIQMTQSPSSLSASVGDRVTITCKASQNVGAAVAWYQQKPGKSPKLLIYSASNRYTGVPDRFSGSGSGTDFTLTISSLQPEDIATYYCQQYSNYPTFGQGTKLEIK
EC50 (human PD-L1-His): 6.26 nM

B4: Hu4B6_HaLa (antibody, human IgG1, V domains shown)
VH: QVQLVQSGAEVKKPGASVKVSCKASGYTFTDYYMNWVRQAPGQGLEWMGDINPNNGGTSYNHKFKGRVTVTVDTSISTAYMELSRLRSDDTAVYYCARWGDGPFAYWGQGTLVTVSS
VL: DIQMTQSPSSLSASVGDRVTITCKASQNVGAAVAWYQQKPGKAPKLLIYSASNRYTGVPSRFSGSGSGTDFTLTISSLQPEDIATYYCQQYSNYPTFGQGTKLEIK
EC50 (human PD-L1-His): 5.16 nM

B5: Hu4B6_HcLa (antibody, human IgG1, V domains shown)
VH: QVQLVQSGAEVKKPGASVKVSCKASGYVFTDYYMNWVRQAPGQGLEWMGDINPNNGGTSYNHKFKGRVTVTVDKSISTAYMELSRLRSDDTAVYYCARWGDGPFAYWGQGTLVTVSS
VL: DIQMTQSPSSLSASVGDRVTITCKASQNVGAAVAWYQQKPGKAPKLLIYSASNRYTGVPSRFSGSGSGTDFTLTISSLQPEDIATYYCQQYSNYPTFGQGTKLEIK
EC50 (human PD-L1-His): 5.74 nM

B6: Hu4B6_HdLb (antibody, human IgG1, V domains shown)
VH: QVQLVQSGAEVKKPGASVKVSCKASGYVFTDYYMNWVRQAPGQSLEWMGDINPNNGGTSYNHKFKGRVTVTVDKSISTAYMELSRLRSDDTAVYYCVKWGDGPFAYWGQGTLVTVSS
VL: DIQMTQSPSSLSASVGDRVTITCKASQNVGAAVAWYQQKPGKSPKLLIYSASNRYTGVPDRFSGSGSGTDFTLTISSLQPEDIATYYCQQYSNYPTFGQGTKLEIK
EC50 (human PD-L1-His): 1.47 nM

B7: Hu4B6_HbLb (antibody, human IgG1, V domains shown)
VH: QVQLVQSGAEVKKPGASVKVSCKASGYTFTDYYMNWVRQAPGQGLEWMGDINPNNGGTSYNHKFKGRVTVTVDTSISTAYMELSRLRSDDTAVYYCVKWGDGPFAYWGQGTLVTVSS
VL: DIQMTQSPSSLSASVGDRVTITCKASQNVGAAVAWYQQKPGKSPKLLIYSASNRYTGVPDRFSGSGSGTDFTLTISSLQPEDIATYYCQQYSNYPTFGQGTKLEIK
EC50 (human PD-L1-His): 2.81 nM

B8: Chimeri 4B6 (antibody, V domains shown)
VH: EVQLQQSGPELVKPGASVKISCKASGYVFTDYYMNWVKQSHGKSLEWIGDINPNNGGTSYNHKFKGKATVTVDKSSRTAYMELLSLTSEDSAVYYCVKWGDGPFAYWGQGTLVTVSA
VL: DIVMTQSQKFMSTSVGDRVSITCKASQNVGAAVAWYQQKPGQSPKLLIYSASNRYTGVPDRFTGSGSGTDFTLTISNMQSEDLADYFCQQYSNYPTFGSGTKLGIK
notes: spelling as printed; also called chimeric 4B6; mouse/chimeric antibody 4B6
EC50 (human PD-L1-His): 2.05 nM

B9: 4B6-HgLa scFv (wild-type sequence for affinity maturation) (scFv)
scFv: DIQMTQSPSSLSASVGDRVTITCKASQNVGAAVAWYQQKPGKAPKLLIYSASNRYTGVPSRFSGSGSGTDFTLTISSLQPEDIATYYCQQYSNYPTFGQGTKLEIKGGGGSGGGGSGGGGSQVQLVQSGAEVKKPGASVKVSCKASGYVFTDYYMNWVRQAPGQSLEWMGDINPNNAGTSYNHKFKGRVTVTVDKSISTAYMELSRLRSDDTAVYYCVKWGDGPFAYWGQGTLVTVSS
notes: written VL-linker-VH; also called L-CDR1-WT; L-CDR2-WT
Kd (human PD-L1-Fc [1]): 26.7 nM
kon (human PD-L1-Fc [1]): 46300 M⁻¹ s⁻¹
Kd (human PD-L1-Fc [2]): 28.2 nM
kon (human PD-L1-Fc [2]): 35800 M⁻¹ s⁻¹
Kd (human PD-L1-Fc [3]): 27.6 nM
kon (human PD-L1-Fc [3]): 38100 M⁻¹ s⁻¹

B10: 4B6 scFv variant H-CDR2-1 (scFv)
scFv: DIQMTQSPSSLSASVGDRVTITCKASQNVGAAVAWYQQKPGKAPKLLIYSASNRYTGVPSRFSGSGSGTDFTLTISSLQPEDIATYYCQQYSNYPTFGQGTKLEIKGGGGSGGGGSGGGGSQVQLVQSGAEVKKPGASVKVSCKASGYVFTDYYMNWVRQAPGQSLEWMGDINPNNADTMYNHKFKGRVTVTVDKSISTAYMELSRLRSDDTAVYYCVKWGDGPFAYWGQGTLVTVSS
notes: also called 4B6-H-CDR2-1
Kd (human PD-L1-Fc [1]): 3.52 nM
kon (human PD-L1-Fc [1]): 141000 M⁻¹ s⁻¹
Fold increase (human PD-L1-Fc [4]): 7.6 fold

B11: 4B6 scFv variant H-CDR2-4 (scFv)
scFv: DIQMTQSPSSLSASVGDRVTITCKASQNVGAAVAWYQQKPGKAPKLLIYSASNRYTGVPSRFSGSGSGTDFTLTISSLQPEDIATYYCQQYSNYPTFGQGTKLEIKGGGGSGGGGSGGGGSQVQLVQSGAEVKKPGASVKVSCKASGYVFTDYYMNWVRQAPGQSLEWMGDINPNNGLTSYNHKFKGRVTVTVDKSISTAYMELSRLRSDDTAVYYCVKWGDGPFAYWGQGTLVTVSS
notes: also called 4B6-H-CDR2-4
Kd (human PD-L1-Fc [1]): 4.43 nM
kon (human PD-L1-Fc [1]): 117000 M⁻¹ s⁻¹
Fold increase (human PD-L1-Fc [4]): 6.03 fold

B12: 4B6 scFv variant H-CDR2-5 (scFv)
scFv: DIQMTQSPSSLSASVGDRVTITCKASQNVGAAVAWYQQKPGKAPKLLIYSASNRYTGVPSRFSGSGSGTDFTLTISSLQPEDIATYYCQQYSNYPTFGQGTKLEIKGGGGSGGGGSGGGGSQVQLVQSGAEVKKPGASVKVSCKASGYVFTDYYMNWVRQAPGQSLEWMGDINPNNAQTVYNHKFKGRVTVTVDKSISTAYMELSRLRSDDTAVYYCVKWGDGPFAYWGQGTLVTVSS
notes: also called 4B6-H-CDR2-5
Kd (human PD-L1-Fc [1]): 2.4 nM
kon (human PD-L1-Fc [1]): 102000 M⁻¹ s⁻¹
Fold increase (human PD-L1-Fc [4]): 11.1 fold

B13: 4B6 scFv variant H-CDR2-2 (scFv)
scFv: DIQMTQSPSSLSASVGDRVTITCKASQNVGAAVAWYQQKPGKAPKLLIYSASNRYTGVPSRFSGSGSGTDFTLTISSLQPEDIATYYCQQYSNYPTFGQGTKLEIKGGGGSGGGGSGGGGSQVQLVQSGAEVKKPGASVKVSCKASGYVFTDYYMNWVRQAPGQSLEWMGDINPNNAQTQYNHKFKGRVTVTVDKSISTAYMELSRLRSDDTAVYYCVKWGDGPFAYWGQGTLVTVSS
notes: also called 4B6-H-CDR2-2
Kd (human PD-L1-Fc [1]): 2.42 nM
kon (human PD-L1-Fc [1]): 101000 M⁻¹ s⁻¹
Fold increase (human PD-L1-Fc [4]): 11 fold

B14: 4B6 scFv variant H-CDR2-3 (scFv)
scFv: DIQMTQSPSSLSASVGDRVTITCKASQNVGAAVAWYQQKPGKAPKLLIYSASNRYTGVPSRFSGSGSGTDFTLTISSLQPEDIATYYCQQYSNYPTFGQGTKLEIKGGGGSGGGGSGGGGSQVQLVQSGAEVKKPGASVKVSCKASGYVFTDYYMNWVRQAPGQSLEWMGDINPNNAETLYNHKFKGRVTVTVDKSISTAYMELSRLRSDDTAVYYCVKWGDGPFAYWGQGTLVTVSS
notes: also called 4B6-H-CDR2-3
Kd (human PD-L1-Fc [1]): 2.43 nM
kon (human PD-L1-Fc [1]): 116000 M⁻¹ s⁻¹
Fold increase (human PD-L1-Fc [4]): 11 fold
